Experimental findings from patent US20200109196A1 (MOGAM INSTITUTE FOR BIOMEDICAL RESEARCH, published 2020) are described below.

Experiment [1] deals with T1, recombinant CEACAM1 protein (UniProt P13688 35-428, limits assumed).
T1 sequence (looked up): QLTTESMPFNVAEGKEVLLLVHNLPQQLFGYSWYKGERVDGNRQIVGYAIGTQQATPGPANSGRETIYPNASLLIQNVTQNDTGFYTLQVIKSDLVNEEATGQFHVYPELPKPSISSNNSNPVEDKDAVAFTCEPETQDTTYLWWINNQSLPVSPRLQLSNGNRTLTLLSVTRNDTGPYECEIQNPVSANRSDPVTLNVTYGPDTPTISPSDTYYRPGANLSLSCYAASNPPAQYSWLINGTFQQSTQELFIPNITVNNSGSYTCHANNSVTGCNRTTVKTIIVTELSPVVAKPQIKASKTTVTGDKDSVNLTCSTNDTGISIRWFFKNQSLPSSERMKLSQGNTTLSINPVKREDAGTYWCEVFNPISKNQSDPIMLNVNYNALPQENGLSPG
As to the kind of experiment: ELISA, coated recombinant CEACAM1, anti-human IgG-HRP detection. As to the method: Then, each well was washed 3 times with a washing buffer prepared by diluting 10 μl of Tween 20 (Sigma-Aldrich; Cat. No. P9146) in 990 μl of PBS.

Experiment [2] deals with T2, human CEACAM1 expressed on the cell surface (CEACAM1-Jurkat T cells); HEK293 cells transfected with human … (human, UniProt P13688 35-526).
T2 construct: whole, on cells; also called CCM1
T2 sequence (looked up): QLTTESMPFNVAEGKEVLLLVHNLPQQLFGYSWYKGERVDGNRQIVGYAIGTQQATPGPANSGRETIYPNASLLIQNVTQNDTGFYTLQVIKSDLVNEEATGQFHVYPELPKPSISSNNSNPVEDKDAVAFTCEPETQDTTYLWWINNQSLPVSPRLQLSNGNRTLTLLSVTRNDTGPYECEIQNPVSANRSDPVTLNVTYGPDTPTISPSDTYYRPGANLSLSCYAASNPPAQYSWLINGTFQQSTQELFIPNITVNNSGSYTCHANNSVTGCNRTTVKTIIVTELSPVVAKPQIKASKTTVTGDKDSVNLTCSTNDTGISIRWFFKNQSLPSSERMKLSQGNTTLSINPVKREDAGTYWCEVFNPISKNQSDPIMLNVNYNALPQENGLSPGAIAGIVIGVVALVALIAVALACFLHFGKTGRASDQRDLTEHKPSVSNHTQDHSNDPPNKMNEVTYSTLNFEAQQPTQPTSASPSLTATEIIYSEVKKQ
The experiment in a line: flow cytometry on CEACAM1-Jurkat T cells; reference: the other clones (MFI 8,000). As to the method: The CEACAM1-Jurkat T cells prepared above were treated with Fc block solution and incubated for 15 minutes. […] Herein, it is noted that the cell numbers were adjusted to 1×10⁵. The cells incubated with the antibodies were repeatedly subjected to the washing procedure of resuspending the cells in a FACS buffer and centrifuging the solution at 1,500 rpm.
PE-conjugated goat anti-human F(ab)₂; (Sigma; Cat. No. P8047)) was diluted in the FACS buffer at a volume ratio of 1:200, and then added to the cells at 100 μl/well. Cells were resuspended well and incubated at 4° C. for 30 minutes in a dark condition.
The cells incubated with the fixation buffer were repeatedly subjected to the washing procedure of resuspending the cells in a FACS buffer, centrifuging the solution at 1,500 rpm, and discarding the supernatant. The washed cells were resuspended in 200 μl of a FACS buffer, and the mean fluorescence intensities (MFIs) of the PE-labeled cells were monitored by a FACS LSR-Fortessa. All FACS analyses were conducted using the FlowJo software.

B1: C25 (antibody, human IgG4 S228P, lambda, V domains shown)
VH: EVQLLESGGGLVQPGGSLRLSCAASGFTFSNYAMSWVRQAPGKGLEWVSVISHGGGSIYYADSVKGRLTISRDNSKNTLYLQMNSLRAEDTAVYYCARDPTKGYAPTFDYWGQGTLVTVSS
VL: QSVLTQPPSASGTPGQRVTISCSGSSSNIGNNYVSWYQQLPGTAPKLLIYADSKRPSGVPDRFSGSKSGTSASLAISGLRSEDEADYYCGAWDASLNGYVFGGGTKLTVLG
notes: Made in ExpiHEK293F cells, protein A purified. huIgG4 is the isotype control and anti-huIgG4 the detection reagent; the isotype is not otherwise stated; also called anti-CEACAM1 antibody C25
B1: the EC50 in experiment [1] came to 0.35 nM.

B2: 4R9_H4-n20 (antibody, human IgG4 S228P, lambda, V domains shown)
VH: EVQLLESGGGLVQPGGSLRLSCAASGFNFSNYAMSWVRQAPGKGLEWVSVISHGGGSIYYADSVKGRLTISRDNSKNTLYLQMNSLRAEDTAVYYCARDPTKGYAPTFDYWGQGTLVTVSS
VL: QSVLTQPPSASGTPGQRVTISCSGSSSNIGNNYVSWYQQLPGTAPKLLIYADSRRPSGVPDRFSGSKSGTSASLAISGLRSEDEADYYCGAWDLSLNGYVFGGGTKLTVLG
notes: also called C25-derived clone 4R9_H4-n20
As to B2, the “fold MFI against the other clones” value in experiment [2] came to 1.5 times.
